Measured values reported in PMC4773404, “Activation of a synapse weakening pathway by human Val66 but not Met66 pro-brain-derived neurotrophic factor (proBDNF)” (Pharmacological Research, 2016).

Assays:
Test in all cases: SPR; Biacore T200; receptor domains amine-coupled to CM5-S Series chips; analytes 0-20 nM flowed over; 10 mM HEPES, 150 mM NaCl, 3 mM EDTA, 0.05% surfactant P20, pH 7.4; double-referenced; 1:1 Langmuir fit
Settings in all cases: both partners purified
[1] = molecular target: T1, human proBDNF Val66, furin cleavage-resistant (FCR) (human)
T1 construct: furin site 127RR128 changed to AA; non-glycosylated; Cloned in pET 24a(+); also called proBDNF FCR Val66
T1 sequence (P23560 whole entry, looked up): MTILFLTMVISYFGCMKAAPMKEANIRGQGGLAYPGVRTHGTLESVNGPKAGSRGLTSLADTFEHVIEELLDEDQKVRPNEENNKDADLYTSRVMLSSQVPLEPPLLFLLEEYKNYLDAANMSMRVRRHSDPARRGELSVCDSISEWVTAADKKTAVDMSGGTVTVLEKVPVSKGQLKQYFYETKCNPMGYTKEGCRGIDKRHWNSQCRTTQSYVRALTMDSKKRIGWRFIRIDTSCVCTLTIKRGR

[2] = molecular target: T2, brain-derived neurotrophic factor (BDNF)
T2 construct: mature BDNF (~14 kDa), the cut product of proBDNF; used as control analyte in SPR; also called mature BDNF
T2 sequence (P23560 19-247, species assumed, looked up): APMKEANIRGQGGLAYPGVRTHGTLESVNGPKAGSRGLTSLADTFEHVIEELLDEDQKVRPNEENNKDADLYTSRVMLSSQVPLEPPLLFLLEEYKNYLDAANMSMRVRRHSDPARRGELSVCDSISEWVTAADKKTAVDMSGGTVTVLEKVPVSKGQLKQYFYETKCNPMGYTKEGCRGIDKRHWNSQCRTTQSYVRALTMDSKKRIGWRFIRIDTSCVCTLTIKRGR

[3] = molecular target: T3, human proBDNF Met66, furin cleavage-resistant (FCR) (human)
T3 construct: furin site 127RR128 changed to AA; non-glycosylated; Cloned in pET 24a(+); also called proBDNF FCR Met66
T3 sequence (P23560 whole entry, looked up): T1 sequence (P23560 whole entry, looked up)

- Kd [1]: 2.32 nM
- koff [1]: 0.00367 s⁻¹
- kon [1]: 1.61e+06 M⁻¹ s⁻¹
- Kd [2]: 0.58 nM
- koff [2]: 0.00232 s⁻¹
- kon [2]: 4.57e+06 M⁻¹ s⁻¹
- Kd [3]: 2.03 nM
- koff [3]: 0.00392 s⁻¹
- kon [3]: 1.99e+06 M⁻¹ s⁻¹
B1: TrkB immunoglobulin-like domain 2 (TrkBIg2) (domain or fragment)
chain: APTITFLESPTSDHHWCIPFTVKGNPKPALQWFYNGAILNESKYICTKIHVTNHTEYHGCLQLDNPTHMNNGDYTLIAKNEYGKDEKQISAHFMGWPG
